This note sets out measurements from US20250263675A1.

Assay [1] has as its target recombinant human VEGF (R&D, 293-VE-010) (human) (UniProt P15692). Description: Octet HTX biosensor, 1x kinetics buffer; antibody at 10 ug/mL in buffer, recombinant human VEGF 200 nM to 3.125 nM. For orientation: In BLI a coated tip is dipped into the sample, and binding shifts an interference pattern.
For assay [2] the target is unchanged. Description: Octet HTX biosensor; antibody prepared in conditioned medium and diluted to 10 ug/mL in 1x kinetics buffer, recombinant human VEGF 200 nM to 3.125 nM.
The target is the same in assay [3]. Kind of assay: Octet HTX biolayer interferometry in 1x kinetics buffer; antibody at 10 ug/mL in buffer as loading sample, recombinant human VEGF 200 to 3.125 nM (data of FIG. 3A); ka Error printed 7.60E+02.
For assay [4] the target is unchanged. Description: Octet HTX biolayer interferometry in 1x kinetics buffer; antibody at 10 ug/mL in buffer as loading sample, recombinant human VEGF 200 to 3.125 nM (data of FIG. 3A); kdis Error printed 1.34E-07.
The target is the same in assay [5]. Description: Octet HTX biolayer interferometry; antibody prepared in conditioned medium at 100 ug/mL, diluted to 10 ug/mL in 1x kinetics buffer, as loading sample; recombinant human VEGF 200 to 3.125 nM (data of FIG. 3B); ka Error printed 8.54E+02.
The target is the same in assay [6]. Description: Octet HTX biolayer interferometry; antibody prepared in conditioned medium at 100 ug/mL, diluted to 10 ug/mL in 1x kinetics buffer, as loading sample; recombinant human VEGF 200 to 3.125 nM (data of FIG. 3B); kdis Error printed 1.27E-07.

Where only a bound is given, the exact number is not on record here.

Sequence of UniProt P15692 (P15692 other isoform, or with tags, fused parts or gaps limits assumed): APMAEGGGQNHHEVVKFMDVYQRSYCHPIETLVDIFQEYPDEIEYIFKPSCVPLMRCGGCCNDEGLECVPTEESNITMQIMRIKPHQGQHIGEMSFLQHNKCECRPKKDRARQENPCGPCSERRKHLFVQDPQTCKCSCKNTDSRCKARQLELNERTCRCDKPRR

Regarding “mouse anti-human VEGF monoclonal antibody (R&D, MAB293-100)”, the Kd in assay [1] and in assay [2] was < 1 pM in each case. The kon worked out at 232000 M⁻¹ s⁻¹ in assay [3] and 286000 M⁻¹ s⁻¹ in assay [5]. The koff in assay [4] and in assay [6] was < 1e-07 s⁻¹ in each case.

Usually Kd stands for the concentration at which binding is half-saturated. Usually kon stands for a measure of how fast the partners come together. Broadly, the koff is a measure of how fast the partners let go of each other.
